Drawing on publication PMC3568674, this text covers Km, kcat and kcat/Km for three molecules.

One data set has as its system NC(=O)NC(=O)O. The data set can be described thus: purified protein. In kind it is biochemical, Granulibacter bethesdensis. The settings on record: 50 mM HEPES pH 7.4, 50 mM NaCl, 1 mM EGTA, 25 °C.
Substrate in the data set “purified protein”: NC(=O)NC(=O)O
The data set can be described thus: purified protein. In kind it is biochemical, Granulibacter bethesdensis. The note with it: 50 mM HEPES pH 7.4, 50 mM NaCl, 1 mM EGTA, 25 °C. The source holds these as a separate data set.

Usually Km stands for the concentration of substrate that gives half-maximal velocity. Broadly, the kcat is the number of substrate molecules converted per active site and unit of time at saturation. What is called kcat/Km is the turnover number divided by the Michaelis constant. For the molecule “GbAH (Granulibacter bethesdensis allophanate hydrolase), wt (Granulibacter bethesdensis CGDNIH1; Y299A)”, in the data set with NC(=O)NC(=O)O, the Km came out at 3000 ± 400 µM, the kcat came to 0.071 ± 0.002 s⁻¹ and the kcat/Km was determined as 24 ± 3 M⁻¹ s⁻¹.

For “GbAH (Granulibacter bethesdensis allophanate hydrolase), wt (Granulibacter bethesdensis CGDNIH1; Y299F)”, in the data set on NC(=O)NC(=O)O, the Michaelis constant (Km) amounted to 1200 ± 100 µM, the turnover number (kcat) was 0.042 ± 0.001 s⁻¹ and the specificity constant (kcat/Km) was found to be 35 ± 3 M⁻¹ s⁻¹.

B1: GbAH (Granulibacter bethesdensis allophanate hydrolase), wt (Granulibacter bethesdensis CGDNIH1) (protein)
chain: MTLSMTLEGIQAFLAQGGTIEQVVTEAYDRITRYGDKAVWIALRPREEVLAEARALDASPATGKPLYGVPFAVKDNIDVAGLPCSAACPAFTYEPDRDATVVARLRAAGAIVLGKTNLDQFATGLVGTRSPFGAPRCVFDQDYISGGSSSGSAVAVAAGLVAFSLGTDTAGSGRVPAAFNNLVGVKPTKGLLSTSGVVPACRSLDCVTVFAASVAEGTLIRRIAEGYDAADPYSRPSQKRRLPHVGLRVGVPRQDQREFYGNTAYAALYQRALDEMISLDAELVEIDFAPFRDAAKLLYGGPWVAERLEAVGDHLSRAPDSFDPVVRSIVETAKTLSAVDAFRGQYELAALTQQANAQWARMDILLLPTAPTIHKVEAVMADPVRLNSQLGHYTNFVNLLDCAAIAVPAGFIETGLPFGVTLVGPAFSDDSMALIADRLHRRLEPGYGQDRASLPDPVLEETNPEQIALAVVGAHLSGQPLHWQLTERNATLVARTRTAPEYRLYALAETIPPKPGLVADPDFTGDGIEIELWSMDAEAFGTFTALVPAPLAIGTLRLADGTSVKGFVCEPAGLVGAQDITRFGGWRAYLAQ
Turning to B1, in “purified protein”, the Michaelis constant (Km) was 100 ± 2 µM, the kcat was determined as 18 ± 1 s⁻¹ and the kcat/Km came to 180000 ± 3000 M⁻¹ s⁻¹.
